According to the DeepSol protein solubility set:

test: soluble on expression in E. coli; label from the status in PepcDB or PDB records

| Sequence | soluble on expression in E. coli |
| --- | --- |
| MGSDKIHHHHHHMTENKLIIGTAPDSWGVWFADDPKQTPWERFLDEVAESGYKWIELGPYGYLPNNPARLAEELKQRDLKVTAGTVFTAFHRGLDEWETAWEPARKVAELTAAMGGEHIVVIPAMWRDDVTGEAVESGQLTEKAWSDLFAGHNRLGKTLLEDFGLKQQFHSHADSHVGAQEDIESLLAATDSKYLNLCLDTGHAEYCGASSLELIKNYPDRIGYLHLKQINPDILKKVNEENMTWAAANLAGVMTEPPNGLPDLRAVIEAVEALNRPIFGIVEQDMYPVAFDVPMPIAKRTRNYLLSCGSRTAVN | not soluble |
| MSLKAPVDFEQEVAPLLSQRCVSCHSPNIKKGELSLAGPEDLLANGYVVPGDPAGSYLLEVVSPAGDDPAAMPKLGDALAEPEVALLRRWIEQGAVWPDGFVIREASKADRSWWSLQPLADIHPPEVAAAPAAWRQNPIDRFVWAKLSEANLKPNSPADRRTLIRRATFDLTGLPPTAEEIDTFVASDSPDAYPQLIDRMLASPRYGERWGRHWLDVIRFGESRGFERNQIITNLWPFRDYVIRSINEDKPFDQFIREHLAGDVIAPNTPQVEVGSAFLVAGPYDDVGNQDPAQAAQIRANTIDEMIRASSEAFLGLTIGCARCHDHKFDVISQRDYYAMYATFAGVKHGERAVATSEQREGHHHHHH | not soluble |
| MDAQYDISFADVEKAHINIRDSIHLTPVLTSSILNQLTGRNLFFKCELFQKTGSFKIRGALNAVRSLVPDALERKPKAVVTHSSGNHGQALTYAAKLEGIPAYIVVPQTAPDCKKLAIQAYGASIVYCEPSDESRENVAKRVTEETEGIMVHPNQEPAVIAGQGTIALEVLNQVPLVDALVVPVGGGGMLAGIAITVKALKPSVKVYAAEPSNADDCYQSKLKGKLMPNLYPPETIADGVKSSIGLNTWPIIRDLVDDIFTVTEDEIKCATQLVWERMKLLIEPTAGVGVAAVLSQHFQTVSPEVKNICIVLSGGNVDLTSSITWVKQAERPASYQSVSVHHHHHH | soluble |
| MTGSTETRQKEVKEPQVDVSDDSDNEAVEQELTEEQRRVAEAAGLGDHIDKQAKQSRSEKKARKLFSKLGLKQVTGVSRVCIRKSKNILFVINKPDVFKSPGSDTYIIFGEAKIEDLTQHAQMSAIENLKPTREAPQLKTVEEDENEDVEEDSTGIEEKDIELVISQANTTRNKAIRALKEADNDIVNAIMSLTM | soluble |
| LNKWMKELSKTTSLDPVKPVDVLLTENDITIKNIRDMNRLRPFGTDFSRPIFEMDDLSVSSVKAIGQQKNHLKLTLGESNIAALFWQNGHLEPELQDEQPINILGSVQINEWNGNQSPQ | not soluble |
| MAITVSIELNRDLEIPASYDEVFDLLADVPKSASHFPKVDKLVDLGNNAYRWEMEKVGVDKHAIQSVYACTYHADKEAGKITWSPIKGEGNGVVSGSWTLSAKGDNATAVKFQTSAELTVPLPSLLKLAISPVIKHEFNSLVDTYMANLKKAFLEHHHHHH | soluble |
| MNIFDHYRQRYEAAKDEEFTLQEFLTTCRQDRSAYANAAERLLMAIGEPVMVDTAQEPRLSRLFSNRVIARYPAFEEFYGMEDAIEQIVSYLKHAAQGLEEKKQILYLLGPVGGGKSSLAERLKSLMQLVPIYVLSANGERSPVNDHPFCLFNPQEDAQILEKEYGIPRRYLGTIMSPWAAKRLHEFGGDITKFRVVKVWPSILQQIAIAKTEPGDENNQDISALVGKVDIRKLEHYAQNDPDAYGYSGALCRANQGIMEFVEMFKAPIKVLHPLLTATQEGNYNGTEGISALPFNGIILAHSNESEWVTFRNNKNNEAFLDRVYIVKVPYCLRISEEIKIYEKLLNHSELTHAPCAPGTLETLSRFSILSRLKEPENSSIYSKMRVYDGESLKDTDPKAKSYQEYRDYAGVDEGMNGLSTRFAFKILSRVFNFDHVEVAANPVHLFYVLEQQIEREQFPQEQAERYLEFLKGYLIPKYAEFIGKEIQTAYLESYSEYGQNIFDRYVTYADFWIQDQEYRDPDTGQLFDRESLNAELEKIEKPAGISNPKDFRNEIVNFVLRARANNSGRNPNWTSYEKLRTVIEKKMFSNTEELLPVISFNAKTSTDEQKKHDDFVDRMMEKGYTRKQVRLLCEWYLRVRKSS | soluble |
| PKTLYDKIWDAHLAHEAEDGTCLLYIDRHLVHEVTSPQAFEGLRMAGRKVRAPEKTIAVPDHNVPTTEGREDPAQMTEESRIQVQALDKNAREFGVHYYPVDDIRQGIVHIVGPEQGWTLPGMTVVCGDSHTATHGAFGALAHGIGTSEVEHVLATQTLIQKKSKN | not soluble |
| MKVTLPEFERAGVMVVGDVMLDRYWYGPTSRISPEAPVPVVKVNTIEERPGGAANVAMNIASLGANARLVGLTGIDDAARALSKSLADVNVKCDFVSVPTHPTITKLRVLSRNQQLIRLDFEEGFEGVDPQPLHERINQALSSIGALVLSDYAKGALASVQQMIQLARKAGVPVLIDPKGTDFERYRGATLLTPNLSEFEAVVGKCKTEEEIVERGMKLIADYELSALLVTRSEQGMSLLQPGKAPLHMPTQAQEVYDVTGAGDTVIGVLAATLAAGNSLEEACFFANAAAGVVVGKLGTSTVSPIELENAVRGRADTGFGVMTEEELKLAVAAARKRGEKVVMTNGVFDILHAGHVSYLANARKLGDRLIVAVNSDASTKRLKGDSRPVNPLEQRMIVLGALEAVDWVVSFEEDTPQRLIAGILPDLLVKGGDYKPEEIAGSKEVWANGGEVLVLNFEDGCSTTNIIKKIQQDKKG | soluble |
| MAHHHHHHMIGGQHTKERLSERLQDCQNQPKNRGYLPGTKLLTGGYSTRTLQGNWAEERMDAGYYDGEAVFPTHLARAWTTDYRTMTSNVSGSLTRPVFDQATLMDIVDHKHRSYPAHQPYLDQQRDEVMQERFKTTTRTSYINPEERKREAQLHIPPVIGRTPTAQARAVILRIQRQLLLSRHGESAFPGNILRQIRLTLQRNDTAGEGMLTVEEAEKGFEEAFLVVSRPECVALVRAFDLKEDGTISIAKIMEELRGELRDRRYSLVEKVYEMLKGFSPDGIVRLQRLAELVDVDSMNAVMNGKVTSSLAHDAFVEQWDLPIDSYISFENFLLYFMDASFEIESDQEFEVFMRNVWHLSGGNGKSMNTSCRRVRVVHRNGRMSTQEVKNDLCIKDSDPNLQERIIANLASWGIKDVARVEMLPRNL | not soluble |
| MGSDKIHHHHHHMPADSVRPTWSLTDIPYATIEKEKIIGNTDWFYLLAGASFVETLSDLYTRNLVEYYQENVGATTWLRQEWEMEEVQHGHALRRYVLFVWPDFDWERAYQGFVTAYAPCCRTELLGPTHALEMASRCVVETGTASFYTMIQAASPEPVLRQIAAHIRADEVHHYKYFYRIFRQYQAAEKNSRWRIGRELWKRVAEAEQEDSYLAIKNAFEVKNPGEKFFIEDFAAFRKRIGGWVDRYYPFDMAIKMLLKPVALPPMLQRAALPLLSHGARRAILG | not soluble |
| MSLKKYLGIIVDAVSRRQFKGEITVENGKILRVEEKEHDHERYILPGLVDAHVHIESSMTVPSVFARMAVAKGTVAVVSDPHEIANVMGEEGIDFMLGDSKRSPLKVFFGVPSCVPATPFESAGSVLDAEAVDRLLAREDLYYLSEMMNFPGVVLGFPDVMAKLESAKKCGKVIDGHAPGLRGADLETYIGVGISTDHESFTYEEAVEKIKLGMKILIREGSSARNFETLYSLIDEYPEAVMLCTDDSHPDTLIYEGHIDKLIRRGQEKGLDIFNLIRAAVINPVEHYGLNVGLLREGDPADFITVDDLKSFNVLSTFIDGECVYENGEGHHHHHH | soluble |
| MRRIILIFSLLTLSLMAFGEEIKVDRSVEESITKDYDQDGVYSSYEKALRRAQESVYVKLPEKRGYWYTILDRVKAEEEELMPEEINRMRRR | not soluble |
| SDTGVIEGGLNVTLTIRLLMHGKEVGSIIGKKGESVKKMREESGARINISEGNCPERIITLAGPTNAIFKAFAMIIDKLEEDISSSMTNSTAASRPPVTLRLVVPASQCGSLIGKGGCKIKEIRESTGAQVQVAGDMLPNSTERAITIAGIPQSIIECVKQICVVMLETLSQSPPKGVTIPYRPKPSSSPVIFAGGQDRYSTGSDSASFPHTTPSMCLNPDLEGPPLEAYTIQGQYAIPQPDLTKLHQLAMQQSHFPMTHGNTGFSGIESSSPEVKGYWAGLDASAQTTSHELTIPNDLIGCIIGRQGAKINEIRQMSGAQIKIANPVEGSTDRQVTITGSAASISLAQYLINVRLSSETGGMGSS | soluble |
| MDSIGGVLNTMKKNLLITLALIIMSHHSAYAQDELTYIPIPKANQIADLNDLDKDGVINARDLCAGTPIGAEVDNDGCETYLHKEEQYQLK | not soluble |
| MLRATNNRRTSNNVEKDSLQMAKHGNGPLKPVNAQGLQTKREAREILALKPSNPAPVETAQKSQRINLQDAETKCLAMADDIYKYLVHHEKKYLLEECFMEGGEPTPKMRRILVDWLVQVHVRFHLTPETLHLTVFILDRMLQKKVTSKADLQLLGISAMFVASKFEEVYLPDIHDYEFITENTYSKKQILAMEQTILNSLNFDLSCPSSLVFLRCLSRILSENDASPIDNQAFCYTYNISKCLGELALLDSVMASTPRSHIASASMIIALEVHPVDGIEAENAVSVICKQLGASKKVIEDAVALLAEVSYKNFKQGKLVAIKNKYQSSKLAQVSNLMTDDVLEKINRMGQNAKVDASEME | soluble |
| MGSDKIHHHHHHMKHTEMSLTDKKIIITRAQEQTSEARKIFRKNGAEVFDLPSLVIGPPDDWAPLDDALKKISTFDWIIFSSANGVRNVEDRMREIGLSLSKISKTIQIAAVGRKTASLLSDMDAEISFVPPSFVADSLLEYFPQNQKGLKLFIPRVQTGGRSILSDSFRLNGAEVTEVAAYESSCPKDVPQKTIEALKSGEIDIIAFTSGKTVINTVSLFNKYFGGNWFKLIEKIKLVSIGPQTTISCKKLIRKPDKEAEPHDLEGLLNACLELKFN | not soluble |
| MILVTGGARSGKSRHAEALIGDAPQVLYIATSQILDDEMAARIQHHKDGRPAHWRTAECWRHLDTLITADLAPDDAILLECITTMVTNLLFALGGENDPEQWDYAAMERAIDDEIQILIAACQRCPAKVVLVTNEVGMGIVPENRLARHFRDIAGRVNQRLAAAADEVWLVVSGIGVKIK | soluble |
| METALYLLPVTLGDTPLEQVLPSYNTEIIRGIRHFIVEDVRSARRFLKKVDREIDIDSLTFYPLNKHTSPEDISGYLKPLAGGASMGVISEAGCPAVADPGADVVAIAQRQKLKVIPLVGPSSIILSVMASGFNGQSFAFHGYLPIEPGERAKKLKTLEQRVYAESQTQLFIETPYRNHKMIEDILQNCRPQTKLCIAANITCEGEFIQTRTVKDWKGHIPELSKIPCIFLLYKLEHHHHHH | soluble |
| MEIMLTYKTFKILGREILIGVVWEEKIQGIAYSLDGLEFLKDQLSRVTSHLKSRGVKVNLLEEKSRYPDLVFDVLKGKIGNEKGFEELSLEGLTRFEIKVYSWLVKNVKRGEVITYGKVAKALKTSPIAVGGAMKRNPYPIIVPCHRVVGKNNPWLYTPKPSYKKFLLEVEGWIS | soluble |
| SSVNYAAGLSPYADKGICGLPETFDSPEELKTKVETLAQWIRESQYMVVHSGAGISTSTGIPDFRGPNGVWTMEERGETPHFNTTFEDARPSLTHMALLQMQRTGHLKYLISQNVDGLHVRSGFPRDRLSELHGNMFVEECEKCGKQYVRDTVVGVMGLKPTGRYCDVMRSRGLRSCRGKLISSILDWEDSLPDRDLNRADEASRRADLALTLGTSLQIKPSGDLPLLTKRTGGKLVIVNLQPTKHDKHAHLRIYGYVDDVMGQLMKLLGLDVPEWAGPTLCEDSGGDLDILPYGAWKKEVKIELKIEESNHTVSKKRKRKEQHAEEGYKNGVKVEEEMKEEGKESDSHVHTHT | soluble |
